Measurements taken from paper PMC2795026.
Like-named read-outs stand apart in the source and are kept apart here.

T1: MBP-Brh2NT-His (Ustilago maydis, UniProt Q8NJ74 1-551)
T1 sequence: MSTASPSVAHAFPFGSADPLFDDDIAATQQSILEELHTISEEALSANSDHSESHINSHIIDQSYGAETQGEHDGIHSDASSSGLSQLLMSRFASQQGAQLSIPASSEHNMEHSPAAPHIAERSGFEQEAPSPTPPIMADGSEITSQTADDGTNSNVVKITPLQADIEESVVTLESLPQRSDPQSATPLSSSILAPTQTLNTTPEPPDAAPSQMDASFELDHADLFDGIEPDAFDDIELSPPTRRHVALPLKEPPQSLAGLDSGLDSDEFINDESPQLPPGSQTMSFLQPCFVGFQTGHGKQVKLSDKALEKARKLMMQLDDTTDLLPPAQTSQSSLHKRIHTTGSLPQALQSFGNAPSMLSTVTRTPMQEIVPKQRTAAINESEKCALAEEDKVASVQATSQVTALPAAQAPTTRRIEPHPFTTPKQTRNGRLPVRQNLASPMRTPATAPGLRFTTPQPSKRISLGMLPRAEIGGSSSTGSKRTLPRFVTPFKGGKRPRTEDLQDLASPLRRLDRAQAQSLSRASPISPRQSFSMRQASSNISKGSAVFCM

T2: MBP-Brh2 (Ustilago maydis, UniProt Q8NJ74 1-1075)
T2 sequence: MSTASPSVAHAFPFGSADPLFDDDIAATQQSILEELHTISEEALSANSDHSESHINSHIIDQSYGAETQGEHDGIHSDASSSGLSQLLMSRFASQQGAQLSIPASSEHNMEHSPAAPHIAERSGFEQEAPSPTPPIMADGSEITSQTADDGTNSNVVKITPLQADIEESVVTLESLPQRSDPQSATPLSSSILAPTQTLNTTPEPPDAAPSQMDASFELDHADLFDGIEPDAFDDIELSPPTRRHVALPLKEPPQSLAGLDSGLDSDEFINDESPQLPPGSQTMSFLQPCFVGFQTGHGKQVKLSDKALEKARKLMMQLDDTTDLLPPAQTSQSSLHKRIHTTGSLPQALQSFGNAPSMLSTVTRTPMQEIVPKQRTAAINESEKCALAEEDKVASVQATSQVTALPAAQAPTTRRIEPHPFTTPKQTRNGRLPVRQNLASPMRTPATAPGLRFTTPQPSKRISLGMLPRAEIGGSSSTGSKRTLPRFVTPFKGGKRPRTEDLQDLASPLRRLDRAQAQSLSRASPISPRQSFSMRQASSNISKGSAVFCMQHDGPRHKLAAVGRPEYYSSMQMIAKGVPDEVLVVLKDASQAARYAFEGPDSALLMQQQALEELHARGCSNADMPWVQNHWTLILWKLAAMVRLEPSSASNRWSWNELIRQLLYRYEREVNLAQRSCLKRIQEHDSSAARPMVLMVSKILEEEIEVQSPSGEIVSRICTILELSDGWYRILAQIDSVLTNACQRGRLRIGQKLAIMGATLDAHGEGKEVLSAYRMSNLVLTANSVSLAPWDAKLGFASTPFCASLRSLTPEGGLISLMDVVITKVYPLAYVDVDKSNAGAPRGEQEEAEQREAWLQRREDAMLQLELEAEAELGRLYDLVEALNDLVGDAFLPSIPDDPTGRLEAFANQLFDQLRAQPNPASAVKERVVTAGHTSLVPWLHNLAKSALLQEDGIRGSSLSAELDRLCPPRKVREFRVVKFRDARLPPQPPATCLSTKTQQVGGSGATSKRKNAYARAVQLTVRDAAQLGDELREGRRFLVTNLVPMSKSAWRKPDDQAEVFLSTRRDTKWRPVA

T3: Brh2 apoprotein (stripped of Dss1) (Ustilago maydis, UniProt Q8NJ74 1-1075)
T3 sequence: T2 sequence

B1: ss60mer (ssDNA)
DNA: GCTGCGCAAGGATAGGTCGAATTTTCTCATTTTCCGCCAGCAGTCCACTTCGATTTAATT
B2: 3'-biotin ss60mer (ssDNA)
DNA: B1 DNA

Legend:
MBP-Brh2NT-His = target: T1, MBP-Brh2NT-His; test: EMSA
MBP-Brh2 [1] = target: T2, MBP-Brh2; test: pull-down
[2] = target: T3, Brh2 apoprotein (stripped of Dss1); test: EMSA
MBP-Brh2 [3] = target: T2, MBP-Brh2; test: pull-down; remark: listed apart in the source

| Binder | binding result (MBP-Brh2NT-His) | binding result (MBP-Brh2 [1]) | binding result [2] | binding result (MBP-Brh2 [3]) |
| --- | --- | --- | --- | --- |
| B1 | binds | binds | binds | – |
| B2 | – | – | – | binds |
